This passage reports koff results from PMC3193538.

For orientation: koff means the first-order rate constant of dissociation. A high value points to a short-lived complex.

[ ]: non-standard residue; d: D form.

This assay concerns the target human integrin protein αvβ3 (human) (UniProt P06756). Kind of assay: SPR. (Surface plasmon resonance follows binding to a sensor surface in real time, without labels.)
For the molecule cyclo(RGD[dF]C) (also: conjugated to G5 PAMAM dendrimer, 2 peptides per dendrimer) [G5-2RGD (generation 5 PAMAM dendrimer displaying 2 cyclic RGD peptides)], the koff came to 0.00132 s⁻¹.
In turn, cyclo(RGD[dF]C) (also: conjugated to G5 PAMAM dendrimer, 3 peptides per dendrimer) [G5-3RGD (generation 5 PAMAM dendrimer displaying 3 cyclic RGD peptides)] returned a koff of 0.00136 s⁻¹.
Consider cyclo(RGD[dF]C) (also: conjugated to G5 PAMAM dendrimer, 10 peptides per dendrimer) [G5-10RGD (generation 5 PAMAM dendrimer displaying 10 cyclic RGD peptides)], for which the koff turned out to be 0.00254 s⁻¹.
Take cyclo(RGD[dF]C) (also: conjugated to G5 PAMAM dendrimer, 7 peptides per dendrimer) [G5-7RGD (generation 5 PAMAM dendrimer displaying 7 cyclic RGD peptides)]: the koff amounted to 0.00155 s⁻¹.
